{"source": "the supplement of paper PMC6757056", "parents": {"B1": {"name": "library; a variant is named by its letters at N, in order (parent)", "chain": "GCUGUCACCGGUGCUUGGUACGUUAUAUUCAGCCGGUCUGAUGAGUCUNNNNNNAGACGAAACAGC"}}, "key": {"(6R,S)-folinic acid [1]": {"variants_of": "B1", "experiment": "normalized RNA/DNA level without ligand (relative to sTRSVctl = 100) (log10 (% of sTRSVctl)); HEK293T overexpressing SLC46A1; higher = less ribozyme self-cleavage, higher mRNA level", "settings": "without (6R,S)-folinic acid; ligand present: no", "outline": "(§1)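 HEK293T cells received ligand, where used, 1 h before being transfected with 4 µg per 6-well well of library plasmids encoding reporter-linked ribozyme switches. After 72 h, RNA was extracted with EDTA and sequenced. RNA level was derived from RNA reads per DNA read, normalized to a spiked-in non-cleaving sequence or the top sequences, then scaled and log-transformed. Values were ×100 then log10, the top set was 25 sequences, and the minimum was 100 DNA reads.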"}, "(6R,S)-folinic acid [2]": {"variants_of": "B1", "experiment": "normalized RNA/DNA level with ligand (relative to sTRSVctl = 100) (log10 (% of sTRSVctl)); HEK293T overexpressing SLC46A1; ligand concentration (+) RNA-Seq: 6 mM; higher = less ribozyme self-cleavage, higher mRNA level", "settings": "with (6R,S)-folinic acid; ligand present: yes", "outline": "as §1"}}, "note": "± gives the standard deviation of the averaged measurements."}
{"variant": "CUUGCC", "values": [{"measurement": "normalized RNA/DNA level without ligand (log10)", "setting": "(6R,S)-folinic acid [1]", "value": "2.03 ± 0.0023"}, {"measurement": "normalized RNA/DNA level with ligand (log10)", "setting": "(6R,S)-folinic acid [2]", "value": "2 ± 0.064"}]}
{"variant": "CUUGCA", "values": [{"measurement": "normalized RNA/DNA level without ligand (log10)", "setting": "(6R,S)-folinic acid [1]", "value": "2.019 ± 0.0087"}, {"measurement": "normalized RNA/DNA level with ligand (log10)", "setting": "(6R,S)-folinic acid [2]", "value": "2.03 ± 0.043"}]}
{"variant": "CUUGCU", "values": [{"measurement": "normalized RNA/DNA level without ligand (log10)", "setting": "(6R,S)-folinic acid [1]", "value": "2.051 ± 0.0067"}, {"measurement": "normalized RNA/DNA level with ligand (log10)", "setting": "(6R,S)-folinic acid [2]", "value": "2.04 ± 0.012"}]}
{"variant": "UUUUGC", "values": [{"measurement": "normalized RNA/DNA level without ligand (log10)", "setting": "(6R,S)-folinic acid [1]", "value": "1.959 ± 0.0097"}, {"measurement": "normalized RNA/DNA level with ligand (log10)", "setting": "(6R,S)-folinic acid [2]", "value": "1.93 ± 0.055"}]}
{"variant": "UUUUGU", "values": [{"measurement": "normalized RNA/DNA level without ligand (log10)", "setting": "(6R,S)-folinic acid [1]", "value": "1.957 ± 0.014"}, {"measurement": "normalized RNA/DNA level with ligand (log10)", "setting": "(6R,S)-folinic acid [2]", "value": "2 ± 0.046"}]}
{"variant": "CUUUAU", "values": [{"measurement": "normalized RNA/DNA level without ligand (log10)", "setting": "(6R,S)-folinic acid [1]", "value": "1.9766 ± 0.0013"}, {"measurement": "normalized RNA/DNA level with ligand (log10)", "setting": "(6R,S)-folinic acid [2]", "value": "2 ± 0.048"}]}
{"variant": "CUUUAA", "values": [{"measurement": "normalized RNA/DNA level without ligand (log10)", "setting": "(6R,S)-folinic acid [1]", "value": "1.978 ± 0.0046"}, {"measurement": "normalized RNA/DNA level with ligand (log10)", "setting": "(6R,S)-folinic acid [2]", "value": "2 ± 0.026"}]}
{"variant": "CUUUAC", "values": [{"measurement": "normalized RNA/DNA level without ligand (log10)", "setting": "(6R,S)-folinic acid [1]", "value": "2.019 ± 0.0086"}, {"measurement": "normalized RNA/DNA level with ligand (log10)", "setting": "(6R,S)-folinic acid [2]", "value": "2.01 ± 0.062"}]}
{"variant": "CUUUAG", "values": [{"measurement": "normalized RNA/DNA level without ligand (log10)", "setting": "(6R,S)-folinic acid [1]", "value": "1.97 ± 0.024"}, {"measurement": "normalized RNA/DNA level with ligand (log10)", "setting": "(6R,S)-folinic acid [2]", "value": "1.9987 ± 0.00067"}]}
{"variant": "UUUGAC", "values": [{"measurement": "normalized RNA/DNA level without ligand (log10)", "setting": "(6R,S)-folinic acid [1]", "value": "2.012 ± 0.0044"}, {"measurement": "normalized RNA/DNA level with ligand (log10)", "setting": "(6R,S)-folinic acid [2]", "value": "2.011 ± 0.018"}]}
{"variant": "AUUUGC", "values": [{"measurement": "normalized RNA/DNA level without ligand (log10)", "setting": "(6R,S)-folinic acid [1]", "value": "2 ± 0.02"}, {"measurement": "normalized RNA/DNA level with ligand (log10)", "setting": "(6R,S)-folinic acid [2]", "value": "1.99 ± 0.026"}]}
{"variant": "AUUUGA", "values": [{"measurement": "normalized RNA/DNA level without ligand (log10)", "setting": "(6R,S)-folinic acid [1]", "value": "1.965 ± 0.0074"}, {"measurement": "normalized RNA/DNA level with ligand (log10)", "setting": "(6R,S)-folinic acid [2]", "value": "2 ± 0.053"}]}
{"variant": "AUUUGU", "values": [{"measurement": "normalized RNA/DNA level without ligand (log10)", "setting": "(6R,S)-folinic acid [1]", "value": "1.945 ± 0.002"}, {"measurement": "normalized RNA/DNA level with ligand (log10)", "setting": "(6R,S)-folinic acid [2]", "value": "2.02 ± 0.042"}]}
{"variant": "AUUUAA", "values": [{"measurement": "normalized RNA/DNA level without ligand (log10)", "setting": "(6R,S)-folinic acid [1]", "value": "1.953 ± 0.013"}, {"measurement": "normalized RNA/DNA level with ligand (log10)", "setting": "(6R,S)-folinic acid [2]", "value": "1.99 ± 0.059"}]}
{"variant": "AUUUAG", "values": [{"measurement": "normalized RNA/DNA level without ligand (log10)", "setting": "(6R,S)-folinic acid [1]", "value": "1.949 ± 0.013"}, {"measurement": "normalized RNA/DNA level with ligand (log10)", "setting": "(6R,S)-folinic acid [2]", "value": "2.01 ± 0.026"}]}
{"variant": "CUUUUG", "values": [{"measurement": "normalized RNA/DNA level without ligand (log10)", "setting": "(6R,S)-folinic acid [1]", "value": "2.0401 ± 0.001"}, {"measurement": "normalized RNA/DNA level with ligand (log10)", "setting": "(6R,S)-folinic acid [2]", "value": "2.04 ± 0.029"}]}
{"variant": "CUUUUA", "values": [{"measurement": "normalized RNA/DNA level without ligand (log10)", "setting": "(6R,S)-folinic acid [1]", "value": "1.988 ± 0.012"}, {"measurement": "normalized RNA/DNA level with ligand (log10)", "setting": "(6R,S)-folinic acid [2]", "value": "2 ± 0.052"}]}
{"variant": "GUUGGG", "values": [{"measurement": "normalized RNA/DNA level without ligand (log10)", "setting": "(6R,S)-folinic acid [1]", "value": "1.912 ± 0.013"}, {"measurement": "normalized RNA/DNA level with ligand (log10)", "setting": "(6R,S)-folinic acid [2]", "value": "2.042 ± 0.017"}]}
{"variant": "GUUGGC", "values": [{"measurement": "normalized RNA/DNA level without ligand (log10)", "setting": "(6R,S)-folinic acid [1]", "value": "1.914 ± 0.019"}, {"measurement": "normalized RNA/DNA level with ligand (log10)", "setting": "(6R,S)-folinic acid [2]", "value": "2.02 ± 0.036"}]}
{"variant": "UUUGCC", "values": [{"measurement": "normalized RNA/DNA level without ligand (log10)", "setting": "(6R,S)-folinic acid [1]", "value": "2.001 ± 0.004"}, {"measurement": "normalized RNA/DNA level with ligand (log10)", "setting": "(6R,S)-folinic acid [2]", "value": "2.04 ± 0.037"}]}
{"variant": "CUUUCC", "values": [{"measurement": "normalized RNA/DNA level without ligand (log10)", "setting": "(6R,S)-folinic acid [1]", "value": "2.02 ± 0.03"}, {"measurement": "normalized RNA/DNA level with ligand (log10)", "setting": "(6R,S)-folinic acid [2]", "value": "2 ± 0.021"}]}
{"variant": "CUUUCU", "values": [{"measurement": "normalized RNA/DNA level without ligand (log10)", "setting": "(6R,S)-folinic acid [1]", "value": "1.998 ± 0.005"}, {"measurement": "normalized RNA/DNA level with ligand (log10)", "setting": "(6R,S)-folinic acid [2]", "value": "1.99 ± 0.035"}]}
{"variant": "CUUUCA", "values": [{"measurement": "normalized RNA/DNA level without ligand (log10)", "setting": "(6R,S)-folinic acid [1]", "value": "1.992 ± 0.013"}, {"measurement": "normalized RNA/DNA level with ligand (log10)", "setting": "(6R,S)-folinic acid [2]", "value": "2.01 ± 0.077"}]}
{"variant": "CUUUCG", "values": [{"measurement": "normalized RNA/DNA level without ligand (log10)", "setting": "(6R,S)-folinic acid [1]", "value": "2.047 ± 0.0046"}, {"measurement": "normalized RNA/DNA level with ligand (log10)", "setting": "(6R,S)-folinic acid [2]", "value": "2.053 ± 0.0034"}]}
{"variant": "CUUUGG", "values": [{"measurement": "normalized RNA/DNA level without ligand (log10)", "setting": "(6R,S)-folinic acid [1]", "value": "2.023 ± 0.0097"}, {"measurement": "normalized RNA/DNA level with ligand (log10)", "setting": "(6R,S)-folinic acid [2]", "value": "1.994 ± 0.013"}]}
{"variant": "CUUUGC", "values": [{"measurement": "normalized RNA/DNA level without ligand (log10)", "setting": "(6R,S)-folinic acid [1]", "value": "2.047 ± 0.017"}, {"measurement": "normalized RNA/DNA level with ligand (log10)", "setting": "(6R,S)-folinic acid [2]", "value": "2.027 ± 0.016"}]}
{"variant": "CUUUGA", "values": [{"measurement": "normalized RNA/DNA level without ligand (log10)", "setting": "(6R,S)-folinic acid [1]", "value": "2.024 ± 0.004"}, {"measurement": "normalized RNA/DNA level with ligand (log10)", "setting": "(6R,S)-folinic acid [2]", "value": "2.05 ± 0.036"}]}
{"variant": "CUUUGU", "values": [{"measurement": "normalized RNA/DNA level without ligand (log10)", "setting": "(6R,S)-folinic acid [1]", "value": "1.986 ± 0.008"}, {"measurement": "normalized RNA/DNA level with ligand (log10)", "setting": "(6R,S)-folinic acid [2]", "value": "1.99 ± 0.022"}]}
{"variant": "CUUGAA", "values": [{"measurement": "normalized RNA/DNA level without ligand (log10)", "setting": "(6R,S)-folinic acid [1]", "value": "1.958 ± 0.01"}, {"measurement": "normalized RNA/DNA level with ligand (log10)", "setting": "(6R,S)-folinic acid [2]", "value": "1.99 ± 0.049"}]}
{"variant": "CUUGAC", "values": [{"measurement": "normalized RNA/DNA level without ligand (log10)", "setting": "(6R,S)-folinic acid [1]", "value": "1.998 ± 0.0057"}, {"measurement": "normalized RNA/DNA level with ligand (log10)", "setting": "(6R,S)-folinic acid [2]", "value": "2.033 ± 0.0045"}]}
{"variant": "CUUGGU", "values": [{"measurement": "normalized RNA/DNA level without ligand (log10)", "setting": "(6R,S)-folinic acid [1]", "value": "2.01 ± 0.021"}, {"measurement": "normalized RNA/DNA level with ligand (log10)", "setting": "(6R,S)-folinic acid [2]", "value": "2.01 ± 0.029"}]}
{"variant": "GUUUGA", "values": [{"measurement": "normalized RNA/DNA level without ligand (log10)", "setting": "(6R,S)-folinic acid [1]", "value": "2.013 ± 0.0046"}, {"measurement": "normalized RNA/DNA level with ligand (log10)", "setting": "(6R,S)-folinic acid [2]", "value": "2.05 ± 0.034"}]}
